Common to all, as to assay: cell_activity; PAM TTTA; U2OS; with at least one of g1/g2, which one not given
Holding throughout (conditions): tags: V5 tag, C-terminal NLS; hairpin

For one data set, the target named is T1, ZJHK Type V-A Cas (unidentified).
T1 chain: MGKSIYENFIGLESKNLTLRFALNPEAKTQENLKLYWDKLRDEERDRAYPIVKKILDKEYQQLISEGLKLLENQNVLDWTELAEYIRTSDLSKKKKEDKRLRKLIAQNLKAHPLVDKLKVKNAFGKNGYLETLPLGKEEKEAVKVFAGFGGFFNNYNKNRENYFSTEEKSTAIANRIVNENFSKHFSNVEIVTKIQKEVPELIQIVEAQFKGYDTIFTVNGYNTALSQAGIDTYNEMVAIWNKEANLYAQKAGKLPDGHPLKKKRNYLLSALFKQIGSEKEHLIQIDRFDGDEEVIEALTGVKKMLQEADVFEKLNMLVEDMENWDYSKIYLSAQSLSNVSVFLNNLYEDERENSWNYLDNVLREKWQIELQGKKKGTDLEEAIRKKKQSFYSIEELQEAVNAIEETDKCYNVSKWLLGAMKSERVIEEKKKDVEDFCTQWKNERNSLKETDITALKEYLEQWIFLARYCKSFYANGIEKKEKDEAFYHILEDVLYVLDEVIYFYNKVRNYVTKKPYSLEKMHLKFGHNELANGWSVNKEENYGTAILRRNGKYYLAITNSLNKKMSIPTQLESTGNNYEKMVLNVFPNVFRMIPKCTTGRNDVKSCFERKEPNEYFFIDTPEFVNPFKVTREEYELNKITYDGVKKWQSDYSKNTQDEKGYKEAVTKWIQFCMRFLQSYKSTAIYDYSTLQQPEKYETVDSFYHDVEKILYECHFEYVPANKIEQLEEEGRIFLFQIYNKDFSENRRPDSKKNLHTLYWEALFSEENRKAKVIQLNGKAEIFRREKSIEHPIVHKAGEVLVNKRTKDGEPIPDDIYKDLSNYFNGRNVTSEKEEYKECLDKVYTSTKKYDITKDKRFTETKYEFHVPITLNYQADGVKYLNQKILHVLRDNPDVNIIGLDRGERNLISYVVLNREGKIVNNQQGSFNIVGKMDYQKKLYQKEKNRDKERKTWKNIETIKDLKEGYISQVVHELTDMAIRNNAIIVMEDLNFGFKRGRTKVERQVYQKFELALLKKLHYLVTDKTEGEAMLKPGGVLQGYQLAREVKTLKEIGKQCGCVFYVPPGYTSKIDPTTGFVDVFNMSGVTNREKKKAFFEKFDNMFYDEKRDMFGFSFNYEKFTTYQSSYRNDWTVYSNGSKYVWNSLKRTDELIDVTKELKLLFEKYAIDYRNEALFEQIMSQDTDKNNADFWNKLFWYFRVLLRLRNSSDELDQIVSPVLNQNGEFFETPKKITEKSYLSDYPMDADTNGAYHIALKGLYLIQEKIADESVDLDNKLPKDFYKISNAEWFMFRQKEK

The next data set concerns the target T2, ZZGY Type V-A Cas (unidentified).
T2 chain: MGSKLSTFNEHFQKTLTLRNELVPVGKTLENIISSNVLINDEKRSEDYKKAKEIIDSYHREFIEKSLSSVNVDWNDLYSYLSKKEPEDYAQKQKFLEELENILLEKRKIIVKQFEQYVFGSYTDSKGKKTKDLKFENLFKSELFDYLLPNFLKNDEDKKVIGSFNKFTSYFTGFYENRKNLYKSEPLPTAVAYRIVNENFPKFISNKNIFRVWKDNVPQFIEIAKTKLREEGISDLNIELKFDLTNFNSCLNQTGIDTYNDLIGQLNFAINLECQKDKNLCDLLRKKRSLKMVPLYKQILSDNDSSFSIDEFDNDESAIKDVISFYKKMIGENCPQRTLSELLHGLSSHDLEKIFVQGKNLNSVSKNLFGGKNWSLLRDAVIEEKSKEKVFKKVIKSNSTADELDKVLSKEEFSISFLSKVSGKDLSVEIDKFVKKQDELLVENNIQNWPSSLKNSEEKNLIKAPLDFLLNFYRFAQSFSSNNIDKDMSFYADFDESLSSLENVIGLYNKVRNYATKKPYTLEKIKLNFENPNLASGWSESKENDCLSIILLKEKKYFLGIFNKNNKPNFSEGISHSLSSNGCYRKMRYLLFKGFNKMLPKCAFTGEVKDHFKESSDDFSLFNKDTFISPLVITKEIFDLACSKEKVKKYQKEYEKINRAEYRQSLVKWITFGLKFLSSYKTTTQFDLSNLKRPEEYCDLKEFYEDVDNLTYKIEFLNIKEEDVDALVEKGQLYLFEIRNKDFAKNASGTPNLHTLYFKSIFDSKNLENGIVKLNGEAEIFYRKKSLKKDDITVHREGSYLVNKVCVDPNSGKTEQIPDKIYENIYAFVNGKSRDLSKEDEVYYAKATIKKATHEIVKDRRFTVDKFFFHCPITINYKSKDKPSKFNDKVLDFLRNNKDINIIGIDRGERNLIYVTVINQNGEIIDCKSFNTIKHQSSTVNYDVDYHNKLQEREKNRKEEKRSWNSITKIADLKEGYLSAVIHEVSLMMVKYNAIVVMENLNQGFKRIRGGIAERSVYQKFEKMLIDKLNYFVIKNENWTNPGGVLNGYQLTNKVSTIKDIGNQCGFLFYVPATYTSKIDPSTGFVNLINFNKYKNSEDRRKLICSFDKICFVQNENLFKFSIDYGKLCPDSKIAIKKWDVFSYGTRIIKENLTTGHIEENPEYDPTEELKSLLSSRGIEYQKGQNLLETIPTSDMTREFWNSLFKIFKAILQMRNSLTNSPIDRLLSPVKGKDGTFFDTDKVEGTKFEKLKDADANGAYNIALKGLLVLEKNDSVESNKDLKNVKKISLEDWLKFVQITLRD

The target of a further data set is T3, ZXPB Type V-A Cas (unidentified).
T3 chain: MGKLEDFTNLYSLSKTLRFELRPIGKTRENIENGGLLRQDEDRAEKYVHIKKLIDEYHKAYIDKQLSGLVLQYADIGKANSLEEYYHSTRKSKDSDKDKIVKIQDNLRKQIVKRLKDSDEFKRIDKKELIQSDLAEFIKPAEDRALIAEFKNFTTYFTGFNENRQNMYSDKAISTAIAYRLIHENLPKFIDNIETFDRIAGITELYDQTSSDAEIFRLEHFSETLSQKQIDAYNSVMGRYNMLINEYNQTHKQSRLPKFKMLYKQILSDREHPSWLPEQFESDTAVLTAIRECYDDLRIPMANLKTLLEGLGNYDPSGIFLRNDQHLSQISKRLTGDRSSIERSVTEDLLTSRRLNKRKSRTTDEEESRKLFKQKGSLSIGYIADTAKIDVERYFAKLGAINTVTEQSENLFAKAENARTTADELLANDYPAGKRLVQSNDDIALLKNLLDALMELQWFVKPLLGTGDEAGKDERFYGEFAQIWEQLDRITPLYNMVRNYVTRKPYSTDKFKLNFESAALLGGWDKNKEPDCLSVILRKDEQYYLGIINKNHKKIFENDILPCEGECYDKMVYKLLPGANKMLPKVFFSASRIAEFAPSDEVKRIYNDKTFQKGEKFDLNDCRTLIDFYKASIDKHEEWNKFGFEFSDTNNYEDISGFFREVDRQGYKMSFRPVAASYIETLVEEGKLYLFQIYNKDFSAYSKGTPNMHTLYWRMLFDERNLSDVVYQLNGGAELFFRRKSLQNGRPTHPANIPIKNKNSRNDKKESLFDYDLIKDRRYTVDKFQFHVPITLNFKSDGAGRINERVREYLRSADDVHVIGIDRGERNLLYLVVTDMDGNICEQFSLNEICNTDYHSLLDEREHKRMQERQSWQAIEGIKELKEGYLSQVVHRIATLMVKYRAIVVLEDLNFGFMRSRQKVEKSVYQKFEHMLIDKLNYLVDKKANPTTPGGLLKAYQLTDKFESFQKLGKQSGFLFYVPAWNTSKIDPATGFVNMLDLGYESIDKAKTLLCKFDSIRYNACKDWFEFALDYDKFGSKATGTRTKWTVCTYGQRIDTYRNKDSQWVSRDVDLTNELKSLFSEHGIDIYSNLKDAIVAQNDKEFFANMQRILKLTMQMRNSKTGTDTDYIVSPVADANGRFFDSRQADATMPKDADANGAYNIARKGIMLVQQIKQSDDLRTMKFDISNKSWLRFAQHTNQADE

Where only a bound is given, the exact number is not on record here.

B1: ZJHK crRNA EGFP-g1 ; EGFP-g1 target (ssRNA ; dsDNA)
RNA: CUUUGAAAGAAUAUAAUUUCUACUGAAAGUGUAGAUCGUCGCCGUCCAGCUCGACCAGG
DNA 1: TTTACGTCGCCGTCCAGCTCGACCAGG
DNA 2: CCTGGTCGAGCTGGACGGCGACGTAAA
For the molecule B1, the activity in the data set with ZJHK Type V-A Cas is over 20 % EGFP KO.

B2: ZZGY crRNA EGFP-g1 ; EGFP-g1 target (ssRNA ; dsDNA)
RNA: UCUAAAGCUCUUUAAGAAUUUCUACUUUCGUAGAUCGUCGCCGUCCAGCUCGACCAGG
DNA 1: TTTACGTCGCCGTCCAGCTCGACCAGG
DNA 2: CCTGGTCGAGCTGGACGGCGACGTAAA
In the data set with ZZGY Type V-A Cas, B2 had an activity of over 20 % EGFP KO.

B3: ZXPB crRNA EGFP-g1 ; EGFP-g1 target (ssRNA ; dsDNA)
RNA: GGCUAUAAAAGCCAUAUAAUUUCUACUAUUGUAGAUCGUCGCCGUCCAGCUCGACCAGG
DNA 1: TTTACGTCGCCGTCCAGCTCGACCAGG
DNA 2: CCTGGTCGAGCTGGACGGCGACGTAAA
In the data set with ZXPB Type V-A Cas, B3 registered an activity of over 20 % EGFP KO.

(Values after patent US20250313864, “TYPE V CAS PROTEINS AND APPLICATIONS THEREOF” (Alia Therapeutics Srl, published 2025).)
